Experiments:
[1] = target: Human PP1g (catalytic subunit of protein phosphatase 1), bacterially expressed (human) (UniProt P36873)
phosphorylase a = experiment: Blot overlay with 32P labelled phosphorylase a; assay type: binding; settings: proteins electrophoresed, transferred to nitrocellulose, probed with 32P labelled phosphorylase a; blot not shown
[2] = target: PP1g (catalytic subunit of protein phosphatase 1); experiment: Protein phosphatase assay: phosphorylase phosphatase activity of PP1; assay type: biochemical, human; settings: freshly prepared preparation; 32P-labelled phosphorylase as substrate; preincubated 15 minutes at 30° C.; FIG. 3; read-out: IC50 for inhibition of the phosphorylase phosphatase activity of PP1
Protocol: Protein phosphatase assays were performed in the absence of divalent cations as described in Cohen et al, (1988), cited above. The catalytic subunit PP1g, described above in Example 2, was diluted in assay buffer to 1.5 U/ml (1.4 nM). Rabbit skeletal muscle glycogen phosphorylase was ^32 P-labelled by phosphorylase kinase to a stoichiometry of 1 mol phosphate per mol subunit as in Cohen et al, Meth. Enzymol. 159:390-408 (1988) and was 10 mM in the assays.
Assays were initiated with 0.01 ml ^32 P-labelled phosphorylase. One unit of activity is the amount of enzyme which catalyses the release of 1 mmol of [^32 P]phosphate per minute.

Molecule: GST-PPP1R5 fusion protein
- IC50, inhibition of phosphorylase phosphatase activity of PP1 [1]: 100 nM

Molecule: GST-GL fusion protein
- IC50, inhibition of phosphorylase phosphatase activity of PP1 [1]: 100 nM

B1: GST-GL: GST fusion protein of the rat liver glycogen binding subunit (GL) of protein phosphatase 1, bacterially expressed (protein)
chain: MAVDIEYSYSSMAPSLRRERFTFKISPKLNKPLRPCIQLGSKDEAGRMVAPTVQEKKVKKRVSFADNQGLALTMVKVFSEFDDPLDIPFNITELLDNIVSLTTAESESFVLDFPQPSADYLDFRNRLQTNHVCLENCVLKEKAIAGTVKVQNLAFEKVVKIRMTFDTWKSFTDFPCQYVKDTYAGSDRDTFSFDISLPEKIQSYERMEFAVCYECNGQSYWDSNKGKNYRITRAELRSTQGMTEPYNGPDFGISFDQFGSPRCSFGLFPEWPSYLGYEKLGPYY
- Binding of phosphorylase a (phosphorylase a): bound
- IC50 [2]: ~100 nM

Reference: patent US5939284A, “Protein phosphatase 1 binding protein, R5” (Smithkline Beecham Corporation, priority 1996, dated 1999)
